# Laboratory results as given in PMC3695782, “Hypersusceptibility mechanism of Tenofovir-resistant HIV to EFdA”.
# B1: Td43/Pd30-EFdA-MP (dsDNA)
# DNA 1: CCATAGATAGCATTGGTGCTCGAACAGTGACAATCAGTGTAGA
# DNA 2: TCTACACTGATTGTCACTGTTCGAGCACCAA
# modifications: EFdA-MP (4'-ethynyl-2-fluoro-2'-deoxyadenosine monophosphate) as 3'-terminal nucleotide of primer, written A; added in situ by RT to Pd30 (S9)
# Target: HIV-1 reverse transcriptase WT (Human immunodeficiency virus type 1, UniProt P04585;P04585 588-1147;588-1027)
# Assay: site-specific Fe2+ footprinting; 6 mM MgCl2, 1 uM EFdA-TP, 1 mM Fe2+, varied dTTP; RT 600 nM, T/P 100 nM; mainly pre-translocation; Footprinting: 120 mM sodium cacodylate pH 7, 20 mM NaCl, 6 mM MgCl2, 1 uM EFdA-TP, 7 min pre-incubation with dTTP, then 1 mM ammonium iron sulfate 5 min; temperature not given; EMSA conditions not in the material
# Conditions: protein: recombinant; copies: 1;1; label: 5'-Cy3 on template Td43; template 5' overhang 12 nt after EFdA-MP addition; other end blunt
binder,measurement,value
B1,binding result,binds
